Legend:
[1] = biological target: recombinant Can f 4 (dog); experiment: experimental rCan f 4 ImmunoCAP
[2] = biological target: IgE of Bos d 23k-reactive serum C; experiment: ImmunoCAP IgE inhibition; serum preincubated with 100 µg/mL rCan f 4, Bos d 23k immobilized
[3] = biological target: IgE of Bos d 23k-reactive serum A; experiment: as above
[4] = biological target: IgE of Bos d 23k-reactive serum B; experiment: as above

allergen specific IgE antibody [1] | percent inhibition of IgE binding to Bos d 23k [2] | percent inhibition of IgE binding to Bos d 23k [3] | percent inhibition of IgE binding to Bos d 23k [4] | Molecule
0.023 kUA/L |  |  |  | myeloma IgE (antibody)
 | > 96% | > 96% | > 96% | recombinant Can f 4 (protein, not shown: small tags and cut ends, N-terminal Met; C-terminal His6 tag) QLPLPNVLTQVSGPWKTLYISSNNLDKIGDNGPFRIYMRGINVDIPRLKMSFNFYVKVDGECVENSVGASIGRDNLIKGEYNGGNYFRIIDMTPNALIGYDVNVDSKGKITKVALLMGRGAHVNEEDIAKFKKLSREKGIPEENIIYLGDTDNCPNHE

From patent US20120076826A1
